Results as given in the DeepSol protein solubility set.

Assay: soluble on expression in E. coli; label from the status in PepcDB or PDB records

Soluble on expression in E. coli, soluble:
SLLDVAVSPDDRFILTADRDEKIRVSWAAAPHSIESFCLGHTEFVSRISVVPTQPGLLLSSSGDGTLRLWEYRSGRQLHCCHLASLQELVDPQAPQKFAASRIAFWCQENCVALLCDGTSVVYIFQLDARRQQLVYRQQLAFQHQVWDVAFEETQGLWVLQDCQEAPLVLYRPVGDQWQSVPESTVLKKVSGVLRGNWAMLEGSAGADASFSSLYKATFDNVTSYLKKKEERLQQQLEKKQRRRSPPPGPDGHAKKMRPGEATLSC

Soluble on expression in E. coli, not soluble:
MGSDKIHHHHHHPEIIVPKPHQLKWHEAEMGAVFHYDLHVFDGIRYGQGNNRISPIEDYNIFNPTQLDTDQWIQAAKAAGCKFAVLTATHETGFGLWQSDVNPYCLKAVKWRDGKGDIVRDFVNSCRKYGIQPGIYVGIRWNSLLGIHNFKVAGDGEFAANRQAWYKRFCEKMVEELCTRYGDLYMIWFDGGADDPRGDGPDVEPIVNKYQPDCLFYHNIDRADFRWGGSETGTVGYPCWSTFPAPCSHHKRIESQKDQIALLKQGDPEGKYWVPAMADSPLRGANGRHEWFWEPDDENNIYPLTTLMDMYEKSVGRNATLIIGLTPDPDGLLPAGDEQRLKEWGEEINRRFGTPLAETQGRKQRLTLNLNEKQPVNYCIIQEDIAKGERIRQYKIEAKVNGKWQTVCSGESVGHKRIAHFEPVETTALRLTVTQSVAVPEIRHFSAYNVTLK
MGSDKIHHHHHHMNTAAIYRQYQTYVRSDKSGWALDGCSDSALIAQAKQPGLHLKMCINRFDSGITLSRMRGGGTGAFPTEIHNFSHNCALFVMVSGQNRLQMGGREYRPSAGEIWLVRGELADVSETLLPDSGGMCALHLDFSLEKLRRWHDEGLLDERLFSPQTIGRFALQRLAQNAGTLTAAACPLLQRPFESDGFGLLADEADALELSARLLRFTFRRHDNGYRRRRIDEAADILNSEFARPLTIAEIARRVGLNECYLKRYFKAQTGETVAGRLRRLRLEHALALIESGSTIQAAMHFCGYRHAGRFNEAFRRHYGFLPSDVKKC
MAMGRTTQFTLDEVAKHADKDSCWLVIDGKVYAVEKFLNEHPGGEDVLLETAGRDATREFEDVGHSKSAREQLKEFYIGDVREPTAEELAAKRAVQASAAAERRDGDGVRANGLGKERLFAGGAFGAEPLSGGSSTWTLLKRLFVPVCIAVLVYLVREYSKQVQTGG
MSLSLPPPRRVVLTTPTHFDVEYVINPHMSENVGAVNTDVAWQQWKALRAAYTALDHTPVLVNGQSGLPDMVFCANQTLPFYDPASDSKGVVLSRMHSEQRADEVPYYARFFEEEGYAVDTLPEDLDADFEGMGDALWHPGHHLLWGGYGYRTSPEAYEALGDLLDVPIVALRLVDPDYYHLDTCLCPLDARHALVAPEAFDDAGRALIDALFETVIEVPDHEARHQFACNAHCPDGAHVLIQEGCEGTNAQLRNHDFVPVELDTSEFMKSGGSVFCMKQMIWEGHHHHHH
MLPSWKAFKAHNILRILTRFQSTKIPDAVIGIDLGTTNSAVAIMEGKVPRIIENAEGSRTTPSVVAFTKDGERLVGEPAKRQSVINSENTLFATKRLIGRRFEDAEVQRDINQVPFKIVKHSNGDAWVEARNRTYSPAQIGGFILNKMKETAEAYLAKSVKNAVVTVPAYFNDAQRQATKDAGQIIGLNVLRVVNEPTAAALAYGLDKSEPKVIAVFDLGGGTFDISILDIDNGIFEVKSTNGDTHLGGEDFDIYLLQEIISHFKKETGIDLSNDRMAVQRIREAAEKAKIELSSTLSTEINLPFITADAAGPKHIRMPFSRVQLENITAPLIDRTVDPVKKALKDARITASDISDVLLVGGMSRMPKVADTVKKLFGKDASKAVNPDEAVALGAAIQAAVLSGEVTDVLLLDVTPLSLGIETLGGVFTKLIPRNSTIPNKKSQIFSTAASGQTSVEVKVFQGERELVKDNKLIGNFTLAGIPPAPKGTPQIEVTFDIDANGIINVSAKDLASHKDSSITVAGASGLSDTEIDRMVNEAERYKNQDRARRNAIETANKADQLANDTENSIKEFEGKLDKTDSQRLKDQISSLRELVSRSQAGDEVNDDDVGTKIDNLRTSSMKLFEQLYKNSDNPETKNGRENK
MDNNVEDKKEAMLKRLANRHEKRLLDQVKSNTKKIDLRATERAFLESSPTSMNMRTPLNPSISSSVSDSPILSYDEKANKQIIALATWCNTMMELDVSEEMDLGESKAEACRNIQKMLKKRSDTSEVENTQENARRRYQRIFEKNDPEVVKKKCKQLLDDSGMDASIKDLLSKNNVAIRKEHAVYNDIGLQTTLLHTFLSFHPAWLKTALEAIFNTRIDAQPKHLMKKLSQFFLDLVFSNPTMLKNKKFAQGSGKPIITEAGKEALHKHFLSVSMKLMFLIETAHTHRVIPNLTRIFTKSSHFNCLDDVFSELTKELLTGSSATFKKAFAKVGFIPTYRQSFIENYDYQAKGFSDFSDGLILAKLLETVGEMPHGQILLKLRDPAGDRIRKIGNVKIVLQEMSSLGVPTDNVNAESIVGGKKDEILSILWAIIGVRVAKEQRIKVTRVSEERTPKKRRSAVHDDMSSEVLKMCKIYGRQMEIEVMDLDSLSDGCLLAKLWTTFGTNSTPIQDYDGLSLWEKVVSVAELELCIQRGLDQNMALFVKMFLERLGMIQDLNEKATKIQRMWKAYVQRKNTPKLYFIVQQLLADSSIPRNRSVSPFSNNVTFTVPRTPRNNILTERPSLSQIPSSRQSMDSTFNDATFTVSRDSIESMNKMQKTPLRGTFTRKTIAMVIEEEDDSENNETVVPSTLKKRTVVRMEHNAEVFREQDEDDENQDKDTVAPSAENLDSPPSDIPLETLSSIPSASQSAIFLQDSETGKEMHVPKAEDVGVVVLEASDSPVALEGNNEASYDGQKIENLETFEIKEGKTQEDLPSKSPMDPTQTSGSPLVEFRMTEEQERLEMLFQSLSEDQKNFVKTNNLSVSIEDDANTPELRRILRQTRELKRKQQEIARKLGNIERNALAVRDGGEDSSDSRSDAGHDVAILHGDDSQLFENSMQLDQKSQLQNDETQILENKKKAAVVIQKMIRGFIARRKFQMEISNIRNRMIQYNHILAQEDEQIGIEEMEDKSVEAKLKKCALHGLTNDNLHVVHVAATVIDRVTDLVPSLLEKLVVELNGIKSITDVLIVADRGFSYTSILHPLLNVLEKLFTKIPEEVTNSHILPHLKILSPRLMLLMLKHSEVKELFIPIINTLTSIARRFPDKKQSSFSSSSYSIKQSLKKVKDQECRNKLVRLESICEDML
MLNTLIVGASGYAGAELVTYVNRHPHMNITALTVSAQSNDAGKLISDLHPQLKGIVELPLQPMSDISEFSPGVDVVFLATAHEVSHDLAPQFLEAGCVVFDLSGAFRVNDATFYEKYYGFTHQYPELLEQAAYGLAEWCGNKLKEANLIAVPGCYPTAAQLALKPLIDADLLDLNQWPVINATSGVSGAGRKAAISNSFCEVSLQPYGVFTHRHQPEIATHLGADVIFTPHLGNFPRGILETITCRLKSGVTQAQVAQALQQAYAHKPLVRLYDKGVPALKNVVGLPFCDIGFAVQGEHLIIVATEDNLLKGAAAQAVQCANIRFGYAETQSLI
MGSDKIHHHHHHMLLVTSHDIQTALEKGIQYQKLTHLFGTLSLQETENHIILNYLPVDLKTEIGLLRAQCEISGTYKFIQDIYTMMGLKMPDMRIDLPFPKPSDPDTVAQYYAYYGDDLHFNSTHAAFSLSKNVLEIKIPSADIITHRIYEAKCIKEIERLNEQDHQIPPIIQYVQDYLELQQGIIPSMAETAFALKMPERTLRHQLQQLNTSYKQIREQIIKNKALKLMEYKEYSIEVIAEALGYSEPAAFNHAFKRWFGQSPRQYGKEFY
